Where a chain is given by its changes, count along the chain named. In names and notes the source's numbering stands. One block for each binder: values may come before it.
How the values were obtained:
[1] = biological target: T1, human ALPPL2 (alkaline phosphatase, germ cell type) expressed on the surface of CHO cells (human, UniProt P10696 20-503); assay: cell-based or functional assay
[2] = biological target: T2, human ALPI (intestinal alkaline phosphatase) expressed on the surface of CHO cells (human, UniProt P09923 20-503); assay: cell-based or functional assay
T2 sequence (looked up): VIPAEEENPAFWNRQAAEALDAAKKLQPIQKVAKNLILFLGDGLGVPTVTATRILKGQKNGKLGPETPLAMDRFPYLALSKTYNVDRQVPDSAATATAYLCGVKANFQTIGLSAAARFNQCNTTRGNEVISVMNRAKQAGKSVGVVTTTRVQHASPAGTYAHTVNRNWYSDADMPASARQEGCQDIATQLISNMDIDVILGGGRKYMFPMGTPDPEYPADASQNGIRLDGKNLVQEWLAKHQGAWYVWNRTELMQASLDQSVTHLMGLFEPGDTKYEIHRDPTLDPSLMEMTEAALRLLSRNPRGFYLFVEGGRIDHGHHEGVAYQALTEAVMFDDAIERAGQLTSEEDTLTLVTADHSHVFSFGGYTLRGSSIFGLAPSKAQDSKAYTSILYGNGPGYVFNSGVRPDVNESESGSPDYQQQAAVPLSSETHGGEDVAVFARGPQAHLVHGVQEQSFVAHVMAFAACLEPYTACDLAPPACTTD

[3] = biological target: T3, human ALPL (tissue non-specific alkaline phosphatase) expressed on the surface of CHO cells (human, UniProt P05186 18-501); assay: cell-based or functional assay
T3 sequence (looked up): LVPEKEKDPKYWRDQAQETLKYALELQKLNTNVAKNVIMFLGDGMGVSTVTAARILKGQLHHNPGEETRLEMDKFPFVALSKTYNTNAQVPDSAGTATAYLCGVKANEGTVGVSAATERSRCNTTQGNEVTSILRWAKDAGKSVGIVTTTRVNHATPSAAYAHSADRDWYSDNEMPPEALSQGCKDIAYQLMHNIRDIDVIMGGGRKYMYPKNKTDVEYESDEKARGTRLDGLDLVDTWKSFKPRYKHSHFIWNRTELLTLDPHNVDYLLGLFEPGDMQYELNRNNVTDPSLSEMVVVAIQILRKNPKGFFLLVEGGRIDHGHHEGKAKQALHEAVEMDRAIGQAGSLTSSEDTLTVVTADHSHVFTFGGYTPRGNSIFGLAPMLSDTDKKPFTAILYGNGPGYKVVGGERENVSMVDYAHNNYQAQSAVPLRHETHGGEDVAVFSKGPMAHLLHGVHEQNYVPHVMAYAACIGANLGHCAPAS

[4] = biological target: T3, human ALPL (tissue non-specific …); assay: flow cytometry, CHO-ALPL cells
[5] = biological target: T2, human ALPI (intestinal alkaline …); assay: flow cytometry on CHO-ALPI cells
[6] = biological target: T4, human ALPP (alkaline phosphatase, placental type) expressed on the surface of CHO cells (human, UniProt P05187 23-506); assay: flow cytometry on CHO-ALPP cells, apparent KD (KDapp)
T4 construct: also called CHO-ALPP; hALPP
Procedure: (§1) Biparatopic VHH-hFc drug conjugates were assessed for human ALPP, ALPPL2, ALPI and ALPL cell-surface binding by flow cytometry. Binders were screened on CHO cells stably expressing human ALPP, ALPPL2, ALPI or ALPL.
(§2) Cell surface binding of test agents to hALPP isoforms was characterized in four CHO-ALPP isoform transfectant cell lines (CHO-ALPP, CHO-ALPPL2, CHO-ALPI and CHO-ALPL) and the resulting KDapp values determined. Adherent cells were detached from tissue culture flasks by incubating with 0.1% EDTA/PBS solution at 37° C. for […] or until cells detached easily. Cells were re-suspended in ice-cold PBS/2% FCS in 15 ml tubes and centrifuged at 1700 rpm for 5 mins at 4° C. Supernatant was removed and the cell pellet re-suspended in PBS/2% FCS. […] Cells were incubated with 100 μl of test agents at a range of concentrations, plus controls for 1 hr on ice. The sample plate was centrifuged at 1700 rpm for 5 mins at 4° C. The supernatant was removed, and a wash performed by re-suspending the cell pellets in 0.25 mL of ice-cold PBS/2% FCS using a multichannel pipette. Samples were again centrifuged at 1700 rpm for 5 min at 4° C. Supernatant was removed and two further washes performed as described. After the final wash and centrifugation step, excess liquid was removed by blotting the plate on tissue paper. Binding of VHH-hFc agents was determined by adding 100 μl of Fitc-anti-human Ab (ThermoFisher) and incubating for 30 mins on ice in the dark. Wash steps were performed as described previously. All cell pellets were finally re-suspended in 0.28 ml of ice-cold PBS/2% FCS and left on ice in the dark prior to analysis on a Merck-Millipore Guava EasyCyte HT or Thermo Fisher Attune N×T flow cytometer.

[7] = biological target: T1, human ALPPL2 (alkaline phosphatase, …); assay: flow cytometry on CHO-ALPPL2 cells, apparent KD (KDapp)
Procedure: as §1, §2

ALPP CysHis = biological target: T5, ALPP CysHis (human, UniProt P05187 23-502); assay: ELISA, antigen coated
T5 construct: Whole entry: engineered human ALPP with an introduced cysteine and a His tag; homodimer; also called engineered ALPP homodimer; hALPP (ELISA)
Text: (§3) ELISA was used to test the binding and specificity of the VHHs. […] Anti-Llama—HRP antibody was used for detection.

ALPI His homodimer = biological target: T6, ALPI His homodimer (human, UniProt P09923 20-503); assay: ELISA, antigen coated
T6 construct: Whole entry with His tag; used in ELISA and BLI; also called hALPI
T6 sequence: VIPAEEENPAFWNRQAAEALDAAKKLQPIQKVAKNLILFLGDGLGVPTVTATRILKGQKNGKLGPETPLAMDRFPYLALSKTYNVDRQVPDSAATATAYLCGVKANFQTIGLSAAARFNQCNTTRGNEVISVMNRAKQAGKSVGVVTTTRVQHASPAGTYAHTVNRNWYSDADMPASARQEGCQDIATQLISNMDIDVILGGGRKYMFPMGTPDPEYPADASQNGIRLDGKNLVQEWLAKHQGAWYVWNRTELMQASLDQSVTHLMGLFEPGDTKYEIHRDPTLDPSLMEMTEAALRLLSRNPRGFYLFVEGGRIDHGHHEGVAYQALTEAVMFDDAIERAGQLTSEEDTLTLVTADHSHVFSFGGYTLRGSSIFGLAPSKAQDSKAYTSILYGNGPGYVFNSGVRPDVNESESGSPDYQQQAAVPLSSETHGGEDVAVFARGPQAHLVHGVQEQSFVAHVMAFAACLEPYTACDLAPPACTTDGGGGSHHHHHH
Text: as §3

[8] = biological target: T7, Human ALPP (leucine zipper) (human); assay: BLI, antigen immobilised
T7 construct: Whole entry: ALPP fused with a cysteine stabilised leucine zipper and His tag; also called hALPP
T7 chain: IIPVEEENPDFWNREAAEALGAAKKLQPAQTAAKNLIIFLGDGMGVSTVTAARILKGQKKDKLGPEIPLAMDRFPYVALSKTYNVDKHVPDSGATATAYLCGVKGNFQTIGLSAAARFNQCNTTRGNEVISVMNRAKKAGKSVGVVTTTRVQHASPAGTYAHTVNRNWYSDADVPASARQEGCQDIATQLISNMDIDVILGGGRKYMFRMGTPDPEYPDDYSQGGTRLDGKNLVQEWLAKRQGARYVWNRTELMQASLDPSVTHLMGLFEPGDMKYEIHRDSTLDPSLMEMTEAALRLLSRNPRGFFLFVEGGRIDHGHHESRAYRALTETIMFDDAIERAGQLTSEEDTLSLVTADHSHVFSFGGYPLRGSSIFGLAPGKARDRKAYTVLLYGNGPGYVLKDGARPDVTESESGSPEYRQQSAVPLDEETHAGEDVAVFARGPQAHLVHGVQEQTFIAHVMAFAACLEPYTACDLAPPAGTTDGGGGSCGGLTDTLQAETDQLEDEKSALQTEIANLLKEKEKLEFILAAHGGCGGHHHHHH
Procedure: (§4) Binding kinetics were determined using the Biolayer Interferometry (BLI) Octet K2 system (Sartorius). […] All assays were conducted in PBS with a plate temperature of 25° C. Ka (M⁻¹s⁻¹), Kd (s⁻¹) and KD (nM) values were determined using Octet Data Analysis High Throughput software (ForteBio) for Biolayer Interferometry.

[9] = biological target: T8, Human ALPL (leucine zipper) (human); assay: BLI, antigen immobilised
T8 construct: Whole entry: fused with a cysteine stabilised leucine zipper and His tag; also called hALPL
T8 chain: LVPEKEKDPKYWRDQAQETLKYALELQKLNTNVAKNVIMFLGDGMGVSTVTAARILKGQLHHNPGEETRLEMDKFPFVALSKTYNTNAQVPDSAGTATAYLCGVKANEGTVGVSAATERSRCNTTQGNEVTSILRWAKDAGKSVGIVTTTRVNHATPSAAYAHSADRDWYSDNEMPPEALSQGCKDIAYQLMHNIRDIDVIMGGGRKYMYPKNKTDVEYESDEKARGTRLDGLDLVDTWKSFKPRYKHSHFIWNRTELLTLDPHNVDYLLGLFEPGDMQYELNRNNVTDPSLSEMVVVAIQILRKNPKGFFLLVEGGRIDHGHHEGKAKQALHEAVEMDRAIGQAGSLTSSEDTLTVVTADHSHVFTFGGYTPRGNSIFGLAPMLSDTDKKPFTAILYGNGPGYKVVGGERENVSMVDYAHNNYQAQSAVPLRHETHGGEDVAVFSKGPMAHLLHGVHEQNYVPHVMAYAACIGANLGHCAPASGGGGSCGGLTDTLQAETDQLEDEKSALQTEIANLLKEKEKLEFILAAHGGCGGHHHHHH
Procedure: as §4

T1 sequence (P10696 20-503): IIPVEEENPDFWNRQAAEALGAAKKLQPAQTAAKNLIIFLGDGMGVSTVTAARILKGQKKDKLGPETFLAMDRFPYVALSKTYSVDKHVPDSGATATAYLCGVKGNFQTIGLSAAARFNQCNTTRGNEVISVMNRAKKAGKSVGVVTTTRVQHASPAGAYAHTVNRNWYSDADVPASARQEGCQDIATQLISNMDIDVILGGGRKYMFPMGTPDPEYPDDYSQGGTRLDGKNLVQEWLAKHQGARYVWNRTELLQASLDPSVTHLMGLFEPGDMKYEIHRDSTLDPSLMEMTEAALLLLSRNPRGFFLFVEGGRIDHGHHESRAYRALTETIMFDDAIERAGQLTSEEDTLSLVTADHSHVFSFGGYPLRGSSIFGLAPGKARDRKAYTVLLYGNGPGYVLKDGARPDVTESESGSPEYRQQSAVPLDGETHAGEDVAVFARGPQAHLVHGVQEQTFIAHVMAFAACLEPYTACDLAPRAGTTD

B1: A06 E10-hFc (S239/442C T366Y/Y407T), [G4S]1 linker, MC-vc-PAB-MMAE conjugate, #711 (Fc fusion, DAR 4)
chain 1: QVHLVESGGGLVQAGGSLRLSCAASGRTFLSMGWFRQAPGKEREFVAAISWTGGSTGYADSVKGRFTISRESDKETMYLQMNSLKPEDTAVYYCAARGDVYYGGDDATRYKYWGQGTQVTVSSGGGGSEPKSSDKTHTCPPCPAPELLGGPCVFLFPPKPKDTLMISRTPEVTCVVVDVSHEDPEVKFNWYVDGVEVHNAKTKPREEQYNSTYRVVSVLTVLHQDWLNGKEYKCKVSNKALPAPIEKTISKAKGQPREPQVYTLPPSRDELTKNQVSLYCLVKGFYPSDIAVEWESNGQPENNYKTTPPVLDSDGSFFLYSKLTVDKSRWQQGNVFSCSVMHEALHNHYTQKSLCLSPGK
chain 2: QVQLVESGGGLVQAGGSLRLSCAVSGRALSDYNIGWFRQAPGKEREFVARKTWDGSSTRYDDSVKGRFTVSIEDAKNTAYLQMSSLKTEDTAVYYCAAGRYSRARGWEYDYWGQGTQVTVSSGGGGSEPKSSDKTHTCPPCPAPELLGGPCVFLFPPKPKDTLMISRTPEVTCVVVDVSHEDPEVKFNWYVDGVEVHNAKTKPREEQYNSTYRVVSVLTVLHQDWLNGKEYKCKVSNKALPAPIEKTISKAKGQPREPQVYTLPPSRDELTKNQVSLTCLVKGFYPSDIAVEWESNGQPENNYKTTPPVLDSDGSFFLTSKLTVDKSRWQQGNVFSCSVMHEALHNHYTQKSLCLSPGK
modifications: MC-vc-PAB-MMAE on Cys of S239C and S442C (EU numbering)
notes: Biparatopic knob-into-hole VHH-hFc heterodimer, DAR 4; The assignment of T366Y to the first named VHH and Y407T to the second follows the order of the name; No paragraph spells out this pair; also called A06-E10-hFc-vcPAB-MMAE; A06-E10 hFc-vc-MMAE
IC50 at 96 h, cell-killing of CHO-ALPPL2 cells [1]: 14.1 nM
IC50 at 96 h, cell-killing of CHO-ALPI cells (estimated from data extrapolation) [2]: ~673 nM
IC50 at 96 h, cell-killing of CHO-ALPL cells (estimated from data extrapolation) [3]: ~597 nM
binding result [4]: no binding (tested: 350 nM (highest concentration))
MFI on CHO-ALPI cells at 350 nM as percent of MFI on CHO-ALPP cells (KDapp not-determinable) [5]: ≤ 1%
Kd [6]: 13.4 nM
Kd [7]: 7.6 nM

B4: E12 (VHH, not shown: small tags and cut ends)
VHH: QVQLVESGGGSVQAGGSLRLSCAASGPSISNFAMGWFRQAPGKEREFVAGISWGGGRTNYLDSVKGRFTISRDNAKNMVHLQMNSLKPEDTTVYYCAGRYGRGRDVEYEYDYWGQGTQVTVSS
binding result (ALPP CysHis): binds
binding result (ALPI His homodimer): no binding (tested: 500 ng VHH)
binding result [9]: no binding

Continued, in another order:

MFI on CHO-ALPI cells at 350 nM as percent of MFI on CHO-ALPP cells (KDapp not-determinable) [5]: ≤ 1%
Kd [6]: 10.6 nM
Kd [7]: 5.7 nM
B2: A06 F05-hFc (S239/442C T366Y/Y407T), [G4S]1 linker, MC-vc-PAB-MMAE conjugate, #712 (Fc fusion, DAR 4)
chain 1: B1 chain 1
chain 2: B1 chain 2 with V24A, L29F, S30G, K51R, E73D, D74N, S84N, A104V
modifications: MC-vc-PAB-MMAE on Cys of S239C and S442C (EU numbering)
notes: also called A06-F05-hFc-vcPAB-MMAE; A06-F05 hFc-vc-MMAE
IC50 at 96 h, cell-killing of CHO-ALPPL2 cells [1]: 14.8 nM
IC50 at 96 h, cell-killing of CHO-ALPI cells (estimated from data extrapolation) [2]: ~776 nM
IC50 at 96 h, cell-killing of CHO-ALPL cells (estimated from data extrapolation) [3]: ~551 nM
binding result [4]: no binding (tested: 350 nM (highest concentration))

binding result (ALPP CysHis): binds
binding result (ALPI His homodimer): no binding (tested: 500 ng VHH)
Kd [8]: < 0.01 nM
koff [8]: < 1e-07 s⁻¹
kon [8]: 38600 M⁻¹ s⁻¹
binding result [9]: no binding
B3: F12 (VHH, not shown: small tags and cut ends)
VHH: QVQLVESGGGLVEAGGSLRLSCAVSGSALSDYNIGWFRQAPGKEREFVARKTWDGSSTKYDDSVKGRFTVSIDNAKNTAYLQMNSLKTEDTAVYYCAAGRYSRVRGWEYDYWGQRTQVTVSS

Source: patent US20260216242A1 (ALMAC DISCOVERY, published 2026)
